Here are results for 14 molecules from patent US20210246166A1 (Bayer, published 2021).

Bridge positions count the residues as written; N and C are the ends. Square brackets hold non-standard residues; d marks the D form. Ends that are not written are not given here. * marks the point of attachment. Piperidin‑4‑ylacetic acid = O=C(CC1CCNCC1)*; Oic = O=C(O)[C@@H]1C[C@@H]2CCCC[C@@H]2N1; Gly(cPent) = N[C@H](C(=O)O)C1CCCC1; NMeI = CC[C@H](C)[C@H](NC)C(=O)O; tBuAla = CC(C)(C)C[C@H](N)C(=O)O; Chg = N[C@H](C(=O)O)C1CCCCC1; Pen = CC(C)(S)[C@H](N)C(=O)O; NMePro = CN1CCC[C@H]1C(=O)*; NMeC = CN[C@@H](CS)C(=O)O; NMeA = CN[C@@H](C)C(=O)O; Ahx = NCCCCCC(=O)O; Sar = CNCC(=O)O

Assay [1] concerns the target T1, Recombinant human MASP1 enzyme (fragment corresponding to amino acids 297-699, C-terminal His Tag) (human, UniProt P48740 297-699).
T1 sequence: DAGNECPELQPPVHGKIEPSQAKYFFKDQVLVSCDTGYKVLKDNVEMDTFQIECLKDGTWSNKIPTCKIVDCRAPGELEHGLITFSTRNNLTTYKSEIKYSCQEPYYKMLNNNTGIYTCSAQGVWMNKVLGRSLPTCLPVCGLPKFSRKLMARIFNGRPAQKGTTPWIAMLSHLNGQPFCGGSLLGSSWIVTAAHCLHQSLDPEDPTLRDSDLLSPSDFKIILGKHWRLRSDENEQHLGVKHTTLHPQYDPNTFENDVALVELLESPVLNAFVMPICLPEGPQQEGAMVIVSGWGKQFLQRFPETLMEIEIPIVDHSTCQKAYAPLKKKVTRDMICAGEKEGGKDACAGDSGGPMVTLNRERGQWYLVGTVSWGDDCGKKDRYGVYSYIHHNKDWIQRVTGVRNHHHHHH
The assay can be described thus: cell-based or functional assay.

Assay [2] concerns the target Recombinant human MASP2 enzyme (fragment corresponding to amino acids 297-686, C-terminal His Tag) (human, UniProt O00187 297-686). The assay can be described thus: cell-based or functional assay.

Recombinant human MASP2 enzyme (fragment corresponding to amino acids 297-686, C-terminal His Tag), sequence (O00187 other isoform, or with tags, fused parts or gaps limits assumed): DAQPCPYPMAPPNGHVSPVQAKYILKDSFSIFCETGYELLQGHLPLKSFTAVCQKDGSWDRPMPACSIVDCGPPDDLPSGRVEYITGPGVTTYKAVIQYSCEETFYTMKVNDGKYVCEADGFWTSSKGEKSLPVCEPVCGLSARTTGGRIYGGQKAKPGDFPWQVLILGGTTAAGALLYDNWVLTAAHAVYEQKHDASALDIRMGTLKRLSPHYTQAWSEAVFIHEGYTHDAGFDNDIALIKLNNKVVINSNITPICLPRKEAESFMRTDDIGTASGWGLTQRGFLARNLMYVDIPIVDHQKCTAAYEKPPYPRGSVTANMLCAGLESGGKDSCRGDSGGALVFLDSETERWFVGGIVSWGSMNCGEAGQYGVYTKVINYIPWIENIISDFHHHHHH

B1: AIC+SRSLPP-(Cpg)-C+IPD-NH2 (peptide)
peptide: AICSRSLPP[Gly(cPent)]CIPD-NH2
modifications: disulfide 3-11; N-terminus assumed
SMILES: CC[C@H](C)[C@H](NC(=O)[C@H](C)N)C(=O)N[C@H]1CSSC[C@@H](C(=O)N[C@H](C(=O)N2CCC[C@H]2C(=O)N[C@@H](CC(=O)O)C(N)=O)[C@@H](C)CC)NC(=O)[C@H](C2CCCC2)NC(=O)[C@@H]2CCCN2C(=O)[C@@H]2CCCN2C(=O)[C@H](CC(C)C)NC(=O)[C@H](CO)NC(=O)[C@H](CCCNC(=N)N)NC(=O)[C@H](CO)NC1=O
Turning to B1, the “human MASP1 IC50” value in assay [1] was 11 nM. Moreover, the “human MASP2 IC50” value in assay [2] was found to be 170 nM.

B2: (Piperidin-4-ylacetic acid)-IC+SRS-((tBu)A)-PPI-((N-Me)C)+I-NH2 (peptide)
peptide: {Piperidin‑4‑ylacetic acid}-ICSRS[tBuAla]PPI[NMeC]I-NH2
modifications: disulfide 2-10
SMILES: CC[C@H](C)[C@H](NC(=O)[C@@H]1CSSC[C@H](NC(=O)[C@@H](NC(=O)CC2CCNCC2)[C@@H](C)CC)C(=O)N[C@@H](CO)C(=O)N[C@@H](CCCNC(=N)N)C(=O)N[C@@H](CO)C(=O)N[C@@H](CC(C)(C)C)C(=O)N2CCC[C@H]2C(=O)N2CCC[C@H]2C(=O)N[C@@H]([C@@H](C)CC)C(=O)N1C)C(N)=O
In the case of B2, the “human MASP1 IC50” value in assay [1] amounted to 10 nM. Besides, in assay [2], the “human MASP2 IC50” value was 32 nM.

B3: ((N-Me)A)-IC+SRS-((tBu)A)-PPIC+IPD-NH2 (peptide)
peptide: [NMeA]ICSRS[tBuAla]PPICIPD-NH2
modifications: disulfide 3-11; N-terminus assumed
SMILES: CC[C@H](C)[C@H](NC(=O)[C@H](C)NC)C(=O)N[C@H]1CSSC[C@@H](C(=O)N[C@H](C(=O)N2CCC[C@H]2C(=O)N[C@@H](CC(=O)O)C(N)=O)[C@@H](C)CC)NC(=O)[C@H]([C@@H](C)CC)NC(=O)[C@@H]2CCCN2C(=O)[C@@H]2CCCN2C(=O)[C@H](CC(C)(C)C)NC(=O)[C@H](CO)NC(=O)[C@H](CCCNC(=N)N)NC(=O)[C@H](CO)NC1=O
For the molecule B3, in assay [1], the “human MASP1 IC50” value amounted to 9.5 nM. Also, the “human MASP2 IC50” value in assay [2] worked out at 440 nM.

B4: (Ahx)-IC+SRS-((tBu)A)-PPI-(Pen)+IP-NH2 (peptide)
peptide: [Ahx]ICSRS[tBuAla]PPI[Pen]IP-NH2
modifications: disulfide 3-11; N-terminus assumed
SMILES: CC[C@H](C)[C@H](NC(=O)CCCCCN)C(=O)N[C@H]1CSSC(C)(C)[C@@H](C(=O)N[C@H](C(=O)N2CCC[C@H]2C(N)=O)[C@@H](C)CC)NC(=O)[C@H]([C@@H](C)CC)NC(=O)[C@@H]2CCCN2C(=O)[C@@H]2CCCN2C(=O)[C@H](CC(C)(C)C)NC(=O)[C@H](CO)NC(=O)[C@H](CCCNC(=N)N)NC(=O)[C@H](CO)NC1=O
For B4, in assay [1], the “human MASP1 IC50” value was determined as 9.9 nM. The “human MASP2 IC50” value in assay [2] stood at 16 nM.

B5: kIC+SRS-((tBu)A)-PPI-(Pen)+I-NH2 (peptide)
peptide: [dK]ICSRS[tBuAla]PPI[Pen]I-NH2
modifications: disulfide 3-11; N-terminus assumed
SMILES: CC[C@H](C)[C@H](NC(=O)[C@H]1NC(=O)[C@H]([C@@H](C)CC)NC(=O)[C@@H]2CCCN2C(=O)[C@@H]2CCCN2C(=O)[C@H](CC(C)(C)C)NC(=O)[C@H](CO)NC(=O)[C@H](CCCNC(=N)N)NC(=O)[C@H](CO)NC(=O)[C@@H](NC(=O)[C@@H](NC(=O)[C@H](N)CCCCN)[C@@H](C)CC)CSSC1(C)C)C(N)=O
B5: the “human MASP1 IC50” value in assay [1] is 10 nM. In addition, the “human MASP2 IC50” value in assay [2] is 110 nM.

B6: ((N-Me)G)-((N-Me)G)-((N-Me)G)-((N-Me)G)-((N-Me)G)-IC+SRS-((tBu)A)-PPI-(Pen)+IP-NH2 (peptide)
peptide: [Sar][Sar][Sar][Sar][Sar]ICSRS[tBuAla]PPI[Pen]IP-NH2
modifications: disulfide 7-15; N-terminus assumed
SMILES: CC[C@H](C)[C@H](NC(=O)CN(C)C(=O)CN(C)C(=O)CN(C)C(=O)CN(C)C(=O)CNC)C(=O)N[C@H]1CSSC(C)(C)[C@@H](C(=O)N[C@H](C(=O)N2CCC[C@H]2C(N)=O)[C@@H](C)CC)NC(=O)[C@H]([C@@H](C)CC)NC(=O)[C@@H]2CCCN2C(=O)[C@@H]2CCCN2C(=O)[C@H](CC(C)(C)C)NC(=O)[C@H](CO)NC(=O)[C@H](CCCNC(=N)N)NC(=O)[C@H](CO)NC1=O
With B6, the “human MASP1 IC50” value in assay [1] was found to be 11 nM. Moreover, the “human MASP2 IC50” value in assay [2] was 38 nM.

B7: ((N-Me)P)-IC+SRS-((tBu)A)-PPIC+IPD-NH2 (peptide)
peptide: [NMePro]ICSRS[tBuAla]PPICIPD-NH2
modifications: disulfide 3-11
SMILES: CC[C@H](C)[C@H](NC(=O)[C@@H]1CCCN1C)C(=O)N[C@H]1CSSC[C@@H](C(=O)N[C@H](C(=O)N2CCC[C@H]2C(=O)N[C@@H](CC(=O)O)C(N)=O)[C@@H](C)CC)NC(=O)[C@H]([C@@H](C)CC)NC(=O)[C@@H]2CCCN2C(=O)[C@@H]2CCCN2C(=O)[C@H](CC(C)(C)C)NC(=O)[C@H](CO)NC(=O)[C@H](CCCNC(=N)N)NC(=O)[C@H](CO)NC1=O
Turning to B7, the “human MASP1 IC50” value in assay [1] was found to be 9.3 nM. Also, the “human MASP2 IC50” value in assay [2] worked out at 260 nM.

B8: IC+SRS-((tBu)A)-PPI-(Pen)+IP-OH (peptide)
peptide: ICSRS[tBuAla]PPI[Pen]IP-OH
modifications: disulfide 2-10; N-terminus assumed
SMILES: CC[C@H](C)[C@H](N)C(=O)N[C@H]1CSSC(C)(C)[C@@H](C(=O)N[C@H](C(=O)N2CCC[C@H]2C(=O)O)[C@@H](C)CC)NC(=O)[C@H]([C@@H](C)CC)NC(=O)[C@@H]2CCCN2C(=O)[C@@H]2CCCN2C(=O)[C@H](CC(C)(C)C)NC(=O)[C@H](CO)NC(=O)[C@H](CCCNC(=N)N)NC(=O)[C@H](CO)NC1=O
B8: in assay [1], the “human MASP1 IC50” value worked out at 10 nM. Besides, the “human MASP2 IC50” value in assay [2] stood at 400 nM.

B9: IC+SRSLP-(Oic)-I-(Pen)+IP-OH (peptide)
peptide: ICSRSLP[Oic]I[Pen]IP-OH
modifications: disulfide 2-10; N-terminus assumed
SMILES: CC[C@H](C)[C@H](N)C(=O)N[C@H]1CSSC(C)(C)[C@@H](C(=O)N[C@H](C(=O)N2CCC[C@H]2C(=O)O)[C@@H](C)CC)NC(=O)[C@H]([C@@H](C)CC)NC(=O)[C@@H]2C[C@@H]3CCCC[C@@H]3N2C(=O)[C@@H]2CCCN2C(=O)[C@H](CC(C)C)NC(=O)[C@H](CO)NC(=O)[C@H](CCCNC(=N)N)NC(=O)[C@H](CO)NC1=O
Consider B9, for which the “human MASP1 IC50” value in assay [1] was 11 nM. Besides, the “human MASP2 IC50” value in assay [2] amounted to 1200 nM.

B10: A-((N-Me)I)-C+SRSLPPIC+IPD-NH2 (peptide)
peptide: A[NMeI]CSRSLPPICIPD-NH2
modifications: disulfide 3-11; N-terminus assumed
SMILES: CC[C@H](C)[C@@H]1NC(=O)[C@@H]2CCCN2C(=O)[C@@H]2CCCN2C(=O)[C@H](CC(C)C)NC(=O)[C@H](CO)NC(=O)[C@H](CCCNC(=N)N)NC(=O)[C@H](CO)NC(=O)[C@@H](NC(=O)[C@H]([C@@H](C)CC)N(C)C(=O)[C@H](C)N)CSSC[C@@H](C(=O)N[C@H](C(=O)N2CCC[C@H]2C(=O)N[C@@H](CC(=O)O)C(N)=O)[C@@H](C)CC)NC1=O
Regarding B10, the “human MASP1 IC50” value in assay [1] was 10.1 nM. Moreover, in assay [2], the “human MASP2 IC50” value worked out at 2700 nM.

B11: AIC+SRSNPPI-(Pen)+IPD-NH2 (peptide)
peptide: AICSRSNPPI[Pen]IPD-NH2
modifications: disulfide 3-11; N-terminus assumed
SMILES: CC[C@H](C)[C@H](NC(=O)[C@H](C)N)C(=O)N[C@H]1CSSC(C)(C)[C@@H](C(=O)N[C@H](C(=O)N2CCC[C@H]2C(=O)N[C@@H](CC(=O)O)C(N)=O)[C@@H](C)CC)NC(=O)[C@H]([C@@H](C)CC)NC(=O)[C@@H]2CCCN2C(=O)[C@@H]2CCCN2C(=O)[C@H](CC(N)=O)NC(=O)[C@H](CO)NC(=O)[C@H](CCCNC(=N)N)NC(=O)[C@H](CO)NC1=O
For B11, in assay [1], the “human MASP1 IC50” value is 9.4 nM. Further, in assay [2], the “human MASP2 IC50” value was 480 nM.

B12: AIC+SRSLPP-(Chg)-C+IPD-NH2 (peptide)
peptide: AICSRSLPP[Chg]CIPD-NH2
modifications: disulfide 3-11; N-terminus assumed
SMILES: CC[C@H](C)[C@H](NC(=O)[C@H](C)N)C(=O)N[C@H]1CSSC[C@@H](C(=O)N[C@H](C(=O)N2CCC[C@H]2C(=O)N[C@@H](CC(=O)O)C(N)=O)[C@@H](C)CC)NC(=O)[C@H](C2CCCCC2)NC(=O)[C@@H]2CCCN2C(=O)[C@@H]2CCCN2C(=O)[C@H](CC(C)C)NC(=O)[C@H](CO)NC(=O)[C@H](CCCNC(=N)N)NC(=O)[C@H](CO)NC1=O
Take B12: the “human MASP1 IC50” value in assay [1] was determined as 9.8 nM. In addition, the “human MASP2 IC50” value in assay [2] was determined as 73.5 nM.
On the same counts, the results for [Sar]ICSRSLP[Oic]I[Pen]IP-NH2 (disulfide 3-11; also: tartrate salt) [((N-Me)G)-IC+SRSLP-(Oic)-I-(Pen)+IP-NH2 (Tartrate)] are 1.1 nM and 35 nM.

B13: IC+SRS-((tBu)A)-PP-I-((N-Me)C)+IPD-NH2 (peptide)
peptide: ICSRS[tBuAla]PPI[NMeC]IPD-NH2
modifications: disulfide 2-10; N-terminus assumed
SMILES: CC[C@H](C)[C@H](N)C(=O)N[C@H]1CSSC[C@@H](C(=O)N[C@H](C(=O)N2CCC[C@H]2C(=O)N[C@@H](CC(=O)O)C(N)=O)[C@@H](C)CC)N(C)C(=O)[C@H]([C@@H](C)CC)NC(=O)[C@@H]2CCCN2C(=O)[C@@H]2CCCN2C(=O)[C@H](CC(C)(C)C)NC(=O)[C@H](CO)NC(=O)[C@H](CCCNC(=N)N)NC(=O)[C@H](CO)NC1=O
As to B13, the “human MASP1 IC50” value in assay [1] amounted to 10 nM. Besides, the “human MASP2 IC50” value in assay [2] came out at 620 nM.
